Reference: patent US20220040297A1 (Chugai, published 2022)

Molecular target: T1, CD3ε homodimer protein (human, UniProt P07766 23-126, limits assumed, sulfo-tag or biotin label in some ECL assays)
T1 construct: also called human CD3ε homodimer protein; CD3 (CD3ε)
Assay: SPR, CD3ε homodimer on chip;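 also: biacore SPR with antibody variants flowed as analyte over amine-coupled CD3ε homodimer on a CM chip, bound amount of each single-residue H chain variant over that of parent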
Protocol: An appropriate amount of CD3ε homodimer protein was immobilized onto Sensor chip CM4 (GE Healthcare Japan Corp.) by the amine coupling method. Then, the antibody having an appropriate concentration was injected thereto as an analyte and allowed to interact with the CD3ε homodimer protein on the sensor chip. Then, the sensor chip was regenerated by the injection of 10 mmol/L glycine-HCl (pH 1.5). The assay was conducted at 25° C., and HBS-EP+ (GE Healthcare Japan Corp.) was used as a running buffer. […] Each parameter was calculated using Biacore T200 Evaluation Software (GE Healthcare Japan Corp.).
Specifically, when the amount of the antibody comprising CE115HA000 bound was defined as X and the amount of the H chain one-amino acid altered form bound was defined as Y, a value of Z (ratio of amounts bound)=Y/X was used.

T1 sequence (P07766 23-126 limits assumed): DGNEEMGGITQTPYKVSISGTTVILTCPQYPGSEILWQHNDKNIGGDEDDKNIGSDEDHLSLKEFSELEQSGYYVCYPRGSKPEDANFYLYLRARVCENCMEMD

| ratio of amounts bound vs CE115HA000 | Binder |
| --- | --- |
| 0.8 | CE115HA000 V100cP (antibody, name in Kabat numbering, V domains shown) VH: QVQLVESGGGVVQPGRSLRLSCAASGFTFSNAWMHWVRQAPGKGLEWVAQIKAKSNNYATYYAESVKGRFTISRDDSKNSLYLQMNSLKTEDTAVYYCRYVHYGAYYGPDAWGQGTTVTVSS VL: DIVMTQSPLSLPVTPGEPASISCRSSQSLVHSNRNTYLHWYQQKPGQAPRLLIYKVSNRFSGVPDRFSGSGSGTDFTLKISRVEAEDVGVYYCGQGTQVPYTFGQGTKLEIK |
| 0.22 | CE115HA000 Y58A (antibody, name in Kabat numbering, V domains shown) VH: QVQLVESGGGVVQPGRSLRLSCAASGFTFSNAWMHWVRQAPGKGLEWVAQIKAKSNNYATAYAESVKGRFTISRDDSKNSLYLQMNSLKTEDTAVYYCRYVHYGAYYGVDAWGQGTTVTVSS VL: DIVMTQSPLSLPVTPGEPASISCRSSQSLVHSNRNTYLHWYQQKPGQAPRLLIYKVSNRFSGVPDRFSGSGSGTDFTLKISRVEAEDVGVYYCGQGTQVPYTFGQGTKLEIK |
| 0.1 | CE115HA000 W33L (antibody, name in Kabat numbering, V domains shown) VH: QVQLVESGGGVVQPGRSLRLSCAASGFTFSNALMHWVRQAPGKGLEWVAQIKAKSNNYATYYAESVKGRFTISRDDSKNSLYLQMNSLKTEDTAVYYCRYVHYGAYYGVDAWGQGTTVTVSS VL: DIVMTQSPLSLPVTPGEPASISCRSSQSLVHSNRNTYLHWYQQKPGQAPRLLIYKVSNRFSGVPDRFSGSGSGTDFTLKISRVEAEDVGVYYCGQGTQVPYTFGQGTKLEIK |
| 0.45 | CE115HA000 Y55D (antibody, name in Kabat numbering, V domains shown) VH: QVQLVESGGGVVQPGRSLRLSCAASGFTFSNAWMHWVRQAPGKGLEWVAQIKAKSNNDATYYAESVKGRFTISRDDSKNSLYLQMNSLKTEDTAVYYCRYVHYGAYYGVDAWGQGTTVTVSS VL: DIVMTQSPLSLPVTPGEPASISCRSSQSLVHSNRNTYLHWYQQKPGQAPRLLIYKVSNRFSGVPDRFSGSGSGTDFTLKISRVEAEDVGVYYCGQGTQVPYTFGQGTKLEIK |
| 0.1 | CE115HA000 W33D (antibody, name in Kabat numbering, V domains shown) VH: QVQLVESGGGVVQPGRSLRLSCAASGFTFSNADMHWVRQAPGKGLEWVAQIKAKSNNYATYYAESVKGRFTISRDDSKNSLYLQMNSLKTEDTAVYYCRYVHYGAYYGVDAWGQGTTVTVSS VL: DIVMTQSPLSLPVTPGEPASISCRSSQSLVHSNRNTYLHWYQQKPGQAPRLLIYKVSNRFSGVPDRFSGSGSGTDFTLKISRVEAEDVGVYYCGQGTQVPYTFGQGTKLEIK |
| 0.27 | CE115HA000 Y58L (antibody, name in Kabat numbering, V domains shown) VH: QVQLVESGGGVVQPGRSLRLSCAASGFTFSNAWMHWVRQAPGKGLEWVAQIKAKSNNYATLYAESVKGRFTISRDDSKNSLYLQMNSLKTEDTAVYYCRYVHYGAYYGVDAWGQGTTVTVSS VL: DIVMTQSPLSLPVTPGEPASISCRSSQSLVHSNRNTYLHWYQQKPGQAPRLLIYKVSNRFSGVPDRFSGSGSGTDFTLKISRVEAEDVGVYYCGQGTQVPYTFGQGTKLEIK |
| 0.33 | CE115HA000 Y58N (antibody, name in Kabat numbering, V domains shown) VH: QVQLVESGGGVVQPGRSLRLSCAASGFTFSNAWMHWVRQAPGKGLEWVAQIKAKSNNYATNYAESVKGRFTISRDDSKNSLYLQMNSLKTEDTAVYYCRYVHYGAYYGVDAWGQGTTVTVSS VL: DIVMTQSPLSLPVTPGEPASISCRSSQSLVHSNRNTYLHWYQQKPGQAPRLLIYKVSNRFSGVPDRFSGSGSGTDFTLKISRVEAEDVGVYYCGQGTQVPYTFGQGTKLEIK |
| 0.66 | CE115HA000 W33Y (antibody, name in Kabat numbering, V domains shown) VH: QVQLVESGGGVVQPGRSLRLSCAASGFTFSNAYMHWVRQAPGKGLEWVAQIKAKSNNYATYYAESVKGRFTISRDDSKNSLYLQMNSLKTEDTAVYYCRYVHYGAYYGVDAWGQGTTVTVSS VL: DIVMTQSPLSLPVTPGEPASISCRSSQSLVHSNRNTYLHWYQQKPGQAPRLLIYKVSNRFSGVPDRFSGSGSGTDFTLKISRVEAEDVGVYYCGQGTQVPYTFGQGTKLEIK |
| 0.55 | CE115HA000 Y55G (antibody, name in Kabat numbering, V domains shown) VH: QVQLVESGGGVVQPGRSLRLSCAASGFTFSNAWMHWVRQAPGKGLEWVAQIKAKSNNGATYYAESVKGRFTISRDDSKNSLYLQMNSLKTEDTAVYYCRYVHYGAYYGVDAWGQGTTVTVSS VL: DIVMTQSPLSLPVTPGEPASISCRSSQSLVHSNRNTYLHWYQQKPGQAPRLLIYKVSNRFSGVPDRFSGSGSGTDFTLKISRVEAEDVGVYYCGQGTQVPYTFGQGTKLEIK |
| 0.11 | CE115HA000 Y58D (antibody, name in Kabat numbering, V domains shown) VH: QVQLVESGGGVVQPGRSLRLSCAASGFTFSNAWMHWVRQAPGKGLEWVAQIKAKSNNYATDYAESVKGRFTISRDDSKNSLYLQMNSLKTEDTAVYYCRYVHYGAYYGVDAWGQGTTVTVSS VL: DIVMTQSPLSLPVTPGEPASISCRSSQSLVHSNRNTYLHWYQQKPGQAPRLLIYKVSNRFSGVPDRFSGSGSGTDFTLKISRVEAEDVGVYYCGQGTQVPYTFGQGTKLEIK |
| 0.26 | CE115HA000 Y55S (antibody, name in Kabat numbering, V domains shown) VH: QVQLVESGGGVVQPGRSLRLSCAASGFTFSNAWMHWVRQAPGKGLEWVAQIKAKSNNSATYYAESVKGRFTISRDDSKNSLYLQMNSLKTEDTAVYYCRYVHYGAYYGVDAWGQGTTVTVSS VL: DIVMTQSPLSLPVTPGEPASISCRSSQSLVHSNRNTYLHWYQQKPGQAPRLLIYKVSNRFSGVPDRFSGSGSGTDFTLKISRVEAEDVGVYYCGQGTQVPYTFGQGTKLEIK |
| 0.13 | CE115HA000 W33H (antibody, name in Kabat numbering, V domains shown) VH: QVQLVESGGGVVQPGRSLRLSCAASGFTFSNAHMHWVRQAPGKGLEWVAQIKAKSNNYATYYAESVKGRFTISRDDSKNSLYLQMNSLKTEDTAVYYCRYVHYGAYYGVDAWGQGTTVTVSS VL: DIVMTQSPLSLPVTPGEPASISCRSSQSLVHSNRNTYLHWYQQKPGQAPRLLIYKVSNRFSGVPDRFSGSGSGTDFTLKISRVEAEDVGVYYCGQGTQVPYTFGQGTKLEIK |
| 0.3 | CE115HA000 Y58K (antibody, name in Kabat numbering, V domains shown) VH: QVQLVESGGGVVQPGRSLRLSCAASGFTFSNAWMHWVRQAPGKGLEWVAQIKAKSNNYATKYAESVKGRFTISRDDSKNSLYLQMNSLKTEDTAVYYCRYVHYGAYYGVDAWGQGTTVTVSS VL: DIVMTQSPLSLPVTPGEPASISCRSSQSLVHSNRNTYLHWYQQKPGQAPRLLIYKVSNRFSGVPDRFSGSGSGTDFTLKISRVEAEDVGVYYCGQGTQVPYTFGQGTKLEIK |
| 0.1 | CE115HA000 W33A (antibody, name in Kabat numbering, V domains shown) VH: QVQLVESGGGVVQPGRSLRLSCAASGFTFSNAAMHWVRQAPGKGLEWVAQIKAKSNNYATYYAESVKGRFTISRDDSKNSLYLQMNSLKTEDTAVYYCRYVHYGAYYGVDAWGQGTTVTVSS VL: DIVMTQSPLSLPVTPGEPASISCRSSQSLVHSNRNTYLHWYQQKPGQAPRLLIYKVSNRFSGVPDRFSGSGSGTDFTLKISRVEAEDVGVYYCGQGTQVPYTFGQGTKLEIK |
| 0.65 | CE115HA000 W33F (antibody, name in Kabat numbering, V domains shown) VH: QVQLVESGGGVVQPGRSLRLSCAASGFTFSNAFMHWVRQAPGKGLEWVAQIKAKSNNYATYYAESVKGRFTISRDDSKNSLYLQMNSLKTEDTAVYYCRYVHYGAYYGVDAWGQGTTVTVSS VL: DIVMTQSPLSLPVTPGEPASISCRSSQSLVHSNRNTYLHWYQQKPGQAPRLLIYKVSNRFSGVPDRFSGSGSGTDFTLKISRVEAEDVGVYYCGQGTQVPYTFGQGTKLEIK |
